# Several values for one entry are separate records, joined by “and”; a condition that tells them apart may be missing. Equal values may be shown once. Entries after “also recorded” stand apart in the source; their conditions may differ. Starred links: 1 amine or outer side, 2 acyl side, 3 side chain; linkers in the order of their positions; H or OH if unused. Non-standard residues stand in square brackets, D forms with d. Residues, ends and D or L forms follow the SMILES beside them. ξ: configuration not given here. *: point of attachment. GluureaLys(ε-3-ClBenzyl) = O=C(O)CC[C@H](NC(=O)N[C@@H](CCCCN(Cc1cccc(Cl)c1)*)C(=O)O)C(=O)O; Dolaproine = CO[C@@H]([C@@H]1CCCN1)[C@@H](C)C(=O)O; Dil = CC[C@H](C)[C@H](NC)[C@@H](CC(=O)O)OC; X1 = O=C(CCCc1cn(CCCN[*:1])nn1)[*:2]; PABC = O=C(OCc1ccc(N[*:1])cc1)[*:2]; X2 = C[C@@H](N*)[C@@H](O)c1ccccc1; Cit = NC(=O)NCCC[C@H](N)C(=O)O; Suc = O=C(CCC(=O)[*:2])[*:1]; NMeV = CN[C@H](C(=O)O)C(C)C; ξV = CC(C)C(N)C(=O)O; Ahx = NCCCCCC(=O)O
# Legend:
# [1] = Acute toxicity study, single intravenous administration, mice; type: in vivo; settings: for Signs of intoxication: mice
# Description: (§1) Acute toxicity study of Conjugate (I) product on mice and rats.
# (§2) • 1. Conjugate (I). • 2. Solubilizer Pluronic F127—in the amount, five-fold greater than the conjugate amount by weight. • 3. Diluent Haemodes infusion solution. • 4. Dimethyl sulfoxide—in the amount of 5% of the prepared volume.
# (§3) The experiment took white outbred male mice aged about 2 months with body weight of 19-21,g, and also white outbred mature male rats aged about 2 months with body weight 190-210 g.
# (§4) Acute toxicity study was performed within the intravenous administration. Before the start of the experiment to determine an acute toxicity, the animals were deprived of food and water (mice were deprived for 2 hours, rats—for 10-12 hours), and then weighed. Then each animal received the intravenous drug injection according to the study design, in a volume not exceeding the acceptable single injection volume: 0.5 mL for mice, 2 mL for rats, and fractionally if necessary. The control group of animals received Pluronic solution in Haemodes in the proportion used fort dose preparation of 78 mg/kg for mice and 38 mg/kg for rats. The duration of observation for laboratory animals was 14 days. During this period, visible signs of intoxication were assessed (see Table 9).
# [2] = Acute toxicity study, single intravenous administration, rats; type: in vivo; settings: for Necropsy (per animal): day 14; for Necropsy (per animal) / Necropsy / Signs of intoxication / Body weight dynamics in % of initial body weight, Day 5 (individual animals) / Body weight dynamics in % of initial body weight, Day 10 (individual animals) / Body weight dynamics in % of initial body weight, Day 14 (individual animals): listed as test drug; for Body weight dynamics in % of initial body weight, Day 5, M ± SD / Body weight dynamics in % of initial body weight, Day 5 (individual animals) / Body weight dynamics in % of initial body weight, Day 10, M ± SD / Body weight dynamics in % of initial body weight, Day 10 (individual animals) / Body weight dynamics in % of initial body weight, Day 14, M ± SD / Body weight dynamics in % of initial body weight, Day 14 (individual animals): single administration; for Body weight dynamics in % of initial body weight, Day 5, M ± SD: Day 5, group mean; for Body weight dynamics in % of initial body weight, Day 10, M ± SD: Day 10, group mean; for Body weight dynamics in % of initial body weight, Day 14, M ± SD: Day 14, group mean
# Description: as §1, §2, §3, §4
# [3] = 3 mg/kg, group 11, males, 3 mg/kg
# [4] = 4 mg/kg, group 12, males, 4 mg/kg
structure (smiles),measurement,setting,value
CC[C@H](C)[C@@H]([C@@H](CC(=O)N1CCC[C@H]1[C@H](OC)[C@@H](C)C(=O)N[C@H](C)[C@@H](O)c1ccccc1)OC)N(C)C(=O)[C@@H](NC(=O)[C@H](C(C)C)N(C)C(=O)OCc1ccc(NC(=O)[C@H](CCCNC(N)=O)NC(=O)C(NC(=O)CCCc2cn(CCCNC(=O)[C@H](Cc3ccc(O)cc3)NC(=O)[C@H](Cc3ccccc3)NC(=O)CCC(=O)NCCCCCC(=O)N(CCCC[C@H](NC(=O)N[C@@H](CCC(=O)O)C(=O)O)C(=O)O)Cc3cccc(Cl)c3)nn2)C(C)C)cc1)C(C)C (some centres unmarked) [Conjugate (I)] ({GluureaLys(ε-3-ClBenzyl)-Ahx-Suc}-FY[X1][ξV][Cit][PABC][NMeV]V[Dil][Dolaproine]-X2),Signs of intoxication,[1]; single i.v. 3 mg/kg,"3-4 days - general health deterioration, the occurring hindlimb paresis"
same,Signs of intoxication,[1]; single i.v. 7 mg/kg,"3-4 days - general health deterioration, the occurring hindlimb paresis, decrease movement activity"
same,Signs of intoxication,[1]; single i.v. 8 mg/kg,"5 days - all animals had disheveled fur, gastrointestinal bleeding, hindlimb paresis. One animal"
same,Signs of intoxication,"[1]; single i.v. 9 mg/kg, listed as test drug, 9 mg/kg","The animals demonstrated a shortness of breath right after administration, the next day - a shortness; also recorded: Days 3 (3), 4 (5), 5 (1), 6 (1)"
same,Signs of intoxication,[1]; single i.v. 30 mg/kg,"All animals were observed with a shortness of breath right after administration, developing"
same,Signs of intoxication,"[1]; single i.v. 45 mg/kg, listed as test drug, 45 mg/kg","All animals were observed with a shortness of breath right after administration, developing; also recorded: died during 12 hours"
same,Signs of intoxication,[1]; single i.v. 60 mg/kg,"All animals were observed with a shortness of breath right after administration, developing"
same,LD50 at 14 days,"[1]; white outbred, mouse, in vivo, iv, male mice, single i.v., read-out: LD50 (median lethal dose)",6.3 mg/kg
same,Body weight effect (summary),"[2]; male rats, all test doses",decreased growth rate or decreased body weight regarding the initial One
same,Fatality,"[2]; male rats, i.v. 4 mg/kg",0
same,Fatality,"[2]; male rats, i.v. 4.5 mg/kg",3
same,Fatality,"[2]; male rats, i.v. 5 mg/kg",5
same,Fatality,"[2]; male rats, i.v. 5.1 mg/kg",4
same,Fatality,"[2]; male rats, i.v. 5.4 mg/kg",10
same,MTD at 14 days,"[2]; male, white outbred, rat, in vivo, iv, rats, single i.v., read-out: Maximum tolerated dose",4 mg/kg
same,Necropsy (per animal),"[2]; rats, 1 mg/kg i.v., 1 mg/kg","1- NORMAL and 2- NORMAL and 3- light kidneys and 4- NORMAL and 5- NORMAL and 6- light kidneys, blurred pattern lines and 7- adrenals glands had hemorrhages, kidneys are and 8- light kidneys and 9- large spleen, granular kidneys and 10- kidneys with hemorrhages"
same,Necropsy (per animal),"[2]; rats, 2 mg/kg i.v., 2 mg/kg","1- very light kidneys, unclear pattern, large spleen and 2- light-brown kidneys, dark adrenal glands with and 3- light-brown kidneys with hemorrhages, kidney cut and 4- light-brown kidneys with hemorrhages, kidney cut and 5- kidneys are lighter than a standard and 6- kidneys are almost standard, dark and increased and 7- spotted liver, light kidneys, their structure is visible and 8- liver is lighter than a standard, light kidneys and 9- dark maroon pancreas, increased and bloody adrenal and 10- dark maroon pancreas, kidneys with hemorrhages,"
same,Necropsy (per animal),"[2]; rats, 3 mg/kg i.v., 3 mg/kg","1- light kidneys with hemorrhages and 2- light kidneys with hemorrhages, blurred pattern and 3- light kidneys with hemorrhages and 5- standard kidneys and 6- kidneys with hemorrhages, clear cut pattern and 7- light, spotted, unevenly stained kidneys and 8- light kidneys and 9- light kidneys, increased adrenal glands, kidneys with and 10- kidneys with hemorrhages, dark and increased"
same,Necropsy (per animal),"[2]; rats, 4 mg/kg i.v., 4 mg/kg","1- kidneys with hemorrhages, unclear pattern and 2- spotted kidneys with hemorrhages, clear pattern and 3- increased right adrenal gland, standard kidneys and 4- slightly increased adrenal glands, with hemorrhages, and 5- spotted kidneys with hemorrhages, clear pattern and 6- standard kidney color, blurred cut pattern, unclear and 7- kidney surface hemorrhages, visible pattern and 8- light kidneys with hemorrhage foci, unclear pattern of and 9- slightly increased, hyperemic adrenal glands, kidney and 10- standard kidneys"
same,Necropsy,"[2]; rats, 4.5 mg/kg i.v., dead No. 4 and survivors day 14, 4.5 mg/kg","increased and hyperemic kidneys; spotted, dark kidneys;; also recorded: Only rat No. 5 had Sight kidneys; also recorded: Others had standard ones"
same,Necropsy,"[2]; rats, 5 mg/kg i.v., dead animals and survivors day 14, 5 mg/kg","2 - light brown kidneys with greenish shade, blurry cut and All rats had a large spleen"
same,Necropsy,"[2]; rats, 5.1 mg/kg i.v., survivors day 14, 5.1 mg/kg","One animal had increased adrenal glands, very light; also recorded: Others had standard ones"
same,Toxic effect (summary),"[2]; rats, acute i.v.",diarrhea and the renal damage
same,Signs of intoxication,"[2]; rats, single i.v. 1 mg/kg, 1 mg/kg",No diarrhea was observed on Day 5.
same,Signs of intoxication,"[2]; rats, single i.v. 3 mg/kg, 3 mg/kg",All animals experienced diarrhea on Day
same,Signs of intoxication,"[2]; rats, single i.v. 4.5 mg/kg, 4.5 mg/kg","Decreased mot. activity - 5-40 minutes; also recorded: Shortness of breath - 1-60 minutes; also recorded: diarrhea, cachexia, porphyria, decreased"
same,Signs of intoxication,"[2]; rats, single i.v. 5 mg/kg, 5 mg/kg",All animals developed diarrhea/cachexia
same,Signs of intoxication,"[2]; rats, single i.v. 5.1 mg/kg, 5.1 mg/kg","Decreased mot. activity - 5-40 minutes; also recorded: Shortness of breath - 1-60 minutes; also recorded: Days 1-2 - all animals had diarrhea,; also recorded: Death cases occurred in 2 days (2), 4"
same,Signs of intoxication,"[2]; rats, single i.v. 5.4 mg/kg, 5.4 mg/kg","Decreased mot. activity - 5-40 minutes; also recorded: Shortness of breath - 1-60 minutes; also recorded: Days 1-2 - all animals had diarrhea,; also recorded: No standard achieved; also recorded: Two animals had the hindlimb paresis"
same,Signs of intoxication,"[2]; rats, single i.v. 6 mg/kg, 6 mg/kg",on Day 2 - all animals showed diarrhea
same,Signs of intoxication,"[2]; rats, single i.v. 8 mg/kg, 8 mg/kg","diarrhea, general starvation, adynamia"
same,"Body weight dynamics in % of initial body weight, Day 5, M ± SD","[2]; 3 mg/kg, group 11, males",−0.2 ± 7.1%
same,"Body weight dynamics in % of initial body weight, Day 5 (individual animals)",[2]; [3],−1.5% and −11.2% and −5.1% and 10.8% and −9.4% and 5.5% and 1.4% and −2.4% and 2.0% and 7.6%
same,"Body weight dynamics in % of initial body weight, Day 10, M ± SD","[2]; 3 mg/kg, group 11, males",17.2 ± 6.1%
same,"Body weight dynamics in % of initial body weight, Day 10 (individual animals)",[2]; [3],17.3% and 5.9% and 16.4% and 25.1% and 11.4% and 20.1% and 19.7% and 17.1% and 13.2% and 26.1%
same,"Body weight dynamics in % of initial body weight, Day 14, M ± SD","[2]; 3 mg/kg, group 11, males",22.8 ± 6.0%
same,"Body weight dynamics in % of initial body weight, Day 14 (individual animals)",[2]; [3],20.8% and 10.1% and 20.0% and 29.1% and 16.8% and 27.1% and 26.4% and 23.8% and 24.9% and 29.4%
same,"Body weight dynamics in % of initial body weight, Day 5, M ± SD","[2]; 4 mg/kg, group 12, males",−7.7 ± 7.6%
same,"Body weight dynamics in % of initial body weight, Day 5 (individual animals)",[2]; [4],6.1% and −15.2% and −5.9% and 0.0% and −3.0% and −4.1% and −13.7% and −17.1% and −9.2% and −14.4%
same,"Body weight dynamics in % of initial body weight, Day 10, M ± SD","[2]; 4 mg/kg, group 12, males",11.0 ± 11.5%
same,"Body weight dynamics in % of initial body weight, Day 10 (individual animals)",[2]; [4],25.5% and 2.5% and 16.3% (2×) and 22.2% and 19.1% and 5.9% and −10.5% and 14.5% and −1.9%
same,"Body weight dynamics in % of initial body weight, Day 14, M ± SD","[2]; 4 mg/kg, group 12, males",20.1 ± 12.1%
same,"Body weight dynamics in % of initial body weight, Day 14 (individual animals)",[2]; [4],35.2% and 11.7% and 24.6% and 31.7% and 28.1% (2×) and 18.0% and 1.0% (2×) and 21.7%
same,LD50 at 14 days,"[2]; white outbred, rat, in vivo, iv, male rats, single i.v., read-out: LD50 (median lethal dose)",4.9 mg/kg

# From patent US12454527B2, “Conjugate monomethyl auristatin E to obtain a composition for treatment of prostate cancer” (priority 2019, dated 2025)
